Here are results for one substance from PMC9166766.

The assay addresses GAL4 DBD-tagged VIVIT PPTP chimeric peptide. Kind of assay: two-hybrid; mammalian two-hybrid in HEK293T cells: GAL4 DBD-tagged peptides, VP16 activation domain-tagged CNAβ2 and pG5-luc cotransfected for 24 h, luciferase read-out; Fig. 4b with or without 1 μM ionomycin.

Turning to VP16 activation domain-tagged CNAβ2, the fold change of the two-hybrid signal against L-1-2 WT stood at 1.93 fold and the fold change of the two-hybrid signal against VIVIT 10-mer came out at 4.76 fold.
